Reference: PMC7072391

Molecular target: tropomyosin receptor kinase A (TrkA) (rat (endogenous in primary septal cholinergic neurons)) (UniProt P35739)
Sequence of UniProt P35739 (P35739 33-799): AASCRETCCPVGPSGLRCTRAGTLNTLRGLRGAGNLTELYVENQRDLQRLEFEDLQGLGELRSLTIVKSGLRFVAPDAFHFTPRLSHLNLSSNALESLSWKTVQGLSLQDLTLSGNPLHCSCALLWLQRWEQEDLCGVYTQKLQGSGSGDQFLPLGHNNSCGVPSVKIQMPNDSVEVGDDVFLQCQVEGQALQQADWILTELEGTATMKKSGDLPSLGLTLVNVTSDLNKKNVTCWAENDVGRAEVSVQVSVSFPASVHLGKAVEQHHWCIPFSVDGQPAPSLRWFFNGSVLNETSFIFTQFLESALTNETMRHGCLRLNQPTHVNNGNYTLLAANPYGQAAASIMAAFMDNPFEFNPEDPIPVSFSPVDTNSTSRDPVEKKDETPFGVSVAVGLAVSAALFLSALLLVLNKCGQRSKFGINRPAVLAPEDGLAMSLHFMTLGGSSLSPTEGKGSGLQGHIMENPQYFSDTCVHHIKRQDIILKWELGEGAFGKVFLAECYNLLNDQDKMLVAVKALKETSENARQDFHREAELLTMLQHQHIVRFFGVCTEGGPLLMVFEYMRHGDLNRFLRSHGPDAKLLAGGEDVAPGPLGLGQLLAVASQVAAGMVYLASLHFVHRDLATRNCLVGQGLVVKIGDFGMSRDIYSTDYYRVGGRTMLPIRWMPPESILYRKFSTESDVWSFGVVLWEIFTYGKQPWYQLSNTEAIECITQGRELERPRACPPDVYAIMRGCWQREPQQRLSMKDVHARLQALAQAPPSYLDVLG

Row | Substance | pTrkA (Y490) level by western blot, cholinergic neurons treated 7′ with 10 μM peptide | pTrkA (Y490) level by western blot, cholinergic neurons treated 7′ with 100 ng/mL (3.84 nM) NGF
1 | acetylated monomer Ac-hNGF1–14 peptide | 296 % of CTR | –
2 | hNGF1–15 dimer (peptide) | 155 % of CTR | –
3 | Nerve Growth Factor (NGF), murine (from UniProt P01139 122-241) (ligand) | – | 161 % of CTR
4 | human NGF 1–14 sequence, monomeric hNGF1–14 peptide | 153 % of CTR | –
